Results taken from patent US20030113828A1 (published 2003).
Changes are numbered by the printed parent chain. Names and notes keep the numbering of the source. Blank lines part the entries; values can stand above or below the binder they belong to. Square brackets hold non-standard residues; d marks the D form. Ends that are not written are not given here. pY = N[C@@H](Cc1ccc(OP(=O)(O)O)cc1)C(=O)O

Experiments:
[1] = target: Syk(6-370) cleaved from GST-Syk(6-370) by thrombin (UniProt P43405 6-370); experiment: surface plasmon resonance (BIAcore 3000)
Description: However integrins are far more abundant than ITAM containing receptor complexes on most cells. For example, Jurkat T cells express ˜80,000 copies of α4β1 (Chen et al. (1999) J Biol Chem 274:13167-13175) and only ˜-12,000 copies of the TCR (Graber et al. (1991) J Immunol 146:2935-2943) on their cell surface.
Experimental procedures, integrin cytoplasmic domain modifications, and data analysis was performed in accordance with procedures described by Yan et al. ((2001) J Biol Chem 276:28164-28170).

GST-Zap-70(1-337) [2] = target: T1, GST-Zap-70(1-337) (human, UniProt P43403 1-337); experiment: affinity chromatography / surface plasmon resonance
T1 construct: range 1-337; also called tandem SH2 domains of Zap-70; not shown: glutathione S-transferase (GST) from pGEX-2T
T1 sequence (looked up): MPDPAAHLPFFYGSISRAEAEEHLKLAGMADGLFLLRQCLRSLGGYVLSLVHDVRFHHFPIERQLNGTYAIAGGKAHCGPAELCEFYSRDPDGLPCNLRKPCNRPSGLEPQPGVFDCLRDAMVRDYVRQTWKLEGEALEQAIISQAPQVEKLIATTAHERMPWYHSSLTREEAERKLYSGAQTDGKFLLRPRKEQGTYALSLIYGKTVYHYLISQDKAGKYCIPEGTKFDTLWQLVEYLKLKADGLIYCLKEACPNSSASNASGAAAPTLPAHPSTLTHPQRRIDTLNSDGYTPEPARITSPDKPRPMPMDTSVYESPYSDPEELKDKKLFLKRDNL

[3] = target: T2, Syk protein tyrosine kinase (wild type) (UniProt P43405 1-635); experiment: binding to β3 tail deletion mutant in vitro
T2 construct: the printed residue numbers (K402, R195, R42, Tyr348) fit it; also called wild-type Syk; Syk kinase
Description: (§1) For direct binding assays, model peptides (1 mg) were dissolved in 1 ml buffer containing 20 mM Tris (pH 7.9), 500 mM NaCl, and 6 M urea. To this, 50 ul packed His-Bind® Resin (Novagen, Madison, Wis.) was added and the mixture was rotated for 1 hour at room temperature. Immobilized peptides were washed 5× in above buffer without urea, and resuspended in 500 μl buffer containing 20 mM PIPES pH 6.8, 50 mM NaCl, 3 mM MgCl₂, 150 mM sucrose, 50 mM NaF, 40 mM Na₄P₂O₇*10H₂O (buffer A) supplemented with 0.1% TritonX-100 and 3 mM MgCl₂. Purified GST-fusion proteins were added to 0.5 ml buffer A supplemented with 0.1% TritonX-100 and 3 mM MgCl₂. Five μl of total packed resin loaded with various integrin cytoplasmic domain model proteins was added to the GST-fusion protein. The mixture was incubated for 40 minutes at room temperature with continuous rotation. The beads were then washed five times in buffer A with 0.1% TritonX-100 and 3 mM MgCl₂. Bound proteins were eluted by boiling in reducing sample buffer, fractionated by SDS PAGE, and immuno-blotted.

[4] = target: T2, Syk protein tyrosine kinase (wild type); experiment: cell-based or functional assay
GST-Zap-70(1-103) = target: T3, GST-Zap-70(1-103) (human, UniProt P43403 1-103); experiment: direct binding assay
T3 construct: range 1-103; also called Zap-70 N-terminal SH2 domain; not shown: glutathione S-transferase (GST) from pGEX-2T
T3 sequence (looked up): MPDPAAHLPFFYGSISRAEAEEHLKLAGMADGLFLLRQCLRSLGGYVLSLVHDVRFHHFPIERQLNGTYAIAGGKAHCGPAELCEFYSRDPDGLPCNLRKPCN
Description: (§2) The regions involved in phosphotyrosine binding are widely separated and in opposite orientation (Hof et al. (1998) Cell 92:441-450).
as §1

GST-Zap-70(163-254) = target: T4, GST-Zap-70(163-254) (human, UniProt P43403 163-254); experiment: direct binding assay
T4 construct: also called Zap-70 C-terminal SH2 domain; not shown: glutathione S-transferase (GST) from pGEX-2T
T4 sequence (looked up): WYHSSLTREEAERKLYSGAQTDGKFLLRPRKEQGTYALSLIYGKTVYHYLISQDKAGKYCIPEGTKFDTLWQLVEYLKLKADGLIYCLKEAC
Description: as §2, §1

[5] = target: T5, tandem SH2 domains of SHP-2 (UniProt Q06124 1-220, limits assumed); experiment: direct binding assay
T5 construct: domain: tandem SH2 domains
T5 sequence (looked up): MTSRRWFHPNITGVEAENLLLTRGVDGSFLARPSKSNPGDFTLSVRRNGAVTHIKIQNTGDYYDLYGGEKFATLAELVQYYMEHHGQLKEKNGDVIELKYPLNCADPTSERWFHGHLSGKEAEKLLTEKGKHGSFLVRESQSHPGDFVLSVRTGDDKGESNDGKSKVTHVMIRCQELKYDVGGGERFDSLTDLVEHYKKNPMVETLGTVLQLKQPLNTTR
Description: as §2, §1

GST-Syk(163-270) = target: T6, GST-Syk(163-270) (UniProt P43405 163-270); experiment: direct binding assay
T6 construct: also called C-terminal SH2 domain of Syk; not shown: glutathione S-transferase (GST) fusion partner
Description: as §2, §1

Zap-70(1-162) = target: T7, Zap-70(1-162) (human, UniProt P43403 1-162); experiment: binding of Zap-70 truncation mutants to the β3 tail
T7 construct: range 1-162; also called N-terminal SH2 domain of Zap-70 with its intact IA domain
Description: as §1

Zap-70(1-132) = target: T8, Zap-70(1-132) (human, UniProt P43403 1-132); experiment: as above
T8 construct: range 1-132
T8 sequence (looked up): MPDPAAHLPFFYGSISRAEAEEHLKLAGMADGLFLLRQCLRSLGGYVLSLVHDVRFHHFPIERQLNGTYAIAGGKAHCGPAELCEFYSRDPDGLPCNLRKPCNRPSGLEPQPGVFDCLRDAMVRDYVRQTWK
Description: as §1

[6] = target: T9, GST fusion of the interdomain A of Syk (UniProt P43405 108-167); experiment: direct binding assay with GST fusion of Syk interdomain A
T9 construct: domain: interdomain A; also called Syk interdomain A GST-fusion protein; not shown: glutathione S-transferase (GST) fusion partner
Description: as §2, §1

GST-Syk(6-370) = GST-Syk(6-370) (UniProt P43405 6-370); experiment: direct binding of GST fusion protein to tail model protein beads, immunoblot
Description: (§3) Following incubation, beads were washed and bound protein was analyzed by immunoblotting.
as §1

GST-Zap-70(1-337) [7] = target: T1, GST-Zap-70(1-337); experiment: as above
Description: as §3, §1

[8] = target: T2, Syk protein tyrosine kinase (wild type); experiment: affinity chromatography of cell lysates on tail model protein beads, immunoblot
From the text: (§4) The model protein mimics are designed with an N-terminal heptad repeat sequence joined to the integrin cytoplasmic domains. The repeats form a coiled-coil homodimer that dimerizes the integrin tails (Pfaff et al. (1998) J Biol Chem 273:6104-6109). These protein mimics are also describied in U.S. patent application Ser. No. 90/320,907, filed May 27, 1999 and U.S. patent application Ser. No. 90/323,447, filed Jun. 1, 1999, the teachings of which are herein incorporated by reference in their entirety.
as §3

Zap-70 = target: T10, Zap-70 (human, UniProt P43403 1-619); experiment: as above
T10 construct: also called Syk paralog
T10 sequence (looked up): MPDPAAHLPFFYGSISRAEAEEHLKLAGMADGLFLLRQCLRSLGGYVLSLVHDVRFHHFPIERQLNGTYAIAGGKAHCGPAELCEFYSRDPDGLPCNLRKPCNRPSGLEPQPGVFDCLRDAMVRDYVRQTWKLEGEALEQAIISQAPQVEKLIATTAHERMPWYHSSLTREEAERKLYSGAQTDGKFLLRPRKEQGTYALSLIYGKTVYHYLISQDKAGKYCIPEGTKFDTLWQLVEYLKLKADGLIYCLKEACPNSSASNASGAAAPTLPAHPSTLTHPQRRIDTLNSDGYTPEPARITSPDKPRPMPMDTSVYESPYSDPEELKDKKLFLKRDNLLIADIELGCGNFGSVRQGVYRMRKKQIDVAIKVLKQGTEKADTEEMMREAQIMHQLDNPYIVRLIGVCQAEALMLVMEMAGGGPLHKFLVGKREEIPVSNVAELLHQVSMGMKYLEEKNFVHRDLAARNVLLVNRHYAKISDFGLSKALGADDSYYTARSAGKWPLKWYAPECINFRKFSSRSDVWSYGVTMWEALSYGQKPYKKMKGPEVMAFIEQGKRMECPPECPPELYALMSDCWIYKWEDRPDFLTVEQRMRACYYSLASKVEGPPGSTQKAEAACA
From the text: as §4, §3

Binder: KLLIHLSDLREYRRFEKEKLKSQWNNDNPLFKSATTTVMNPKFAES (other, UniProt P05107 724-769, looked up, not shown: small tags and cut ends, not fully specified, domain: cytoplasmic domain) [β2 integrin cytoplasmic domain model protein]
Kd [1]: 36 nM | binding result (GST-Zap-70(1-337) [2]): binds

B1: β3(759X) cytoplasmic tail model protein (other, UniProt P05106 742-784, looked up, not shown: small tags and cut ends)
chain: KLLITIHDRKEFAKFEEERARAKWDTANNPLYKEATSTFTNIT
modifications: not fully specified
notes: domain: cytoplasmic domain; C-terminal truncation
binding result [3]: no binding

Binder: DGV[pY]TGLSTRNQET[pY]ETLKTCR [dually-phosphorylated FcεRIγ chain ITAM peptide]
activation of Syk kinase in vitro (EC50) [4]: 1000 to 2000 nM

B3: integrin β3(Y747A) cytoplasmic tail model protein (other, UniProt P05106 742-788, looked up, not shown: small tags and cut ends)
chain: KLLITIHDRKEFAKFEEERARAKWDTANNPLAKEATSTFTNITYRGT
modifications: not fully specified
notes: domain: cytoplasmic domain; also called β3(Y747A) tail; point mutant of the β3 tail (Y747A)
binding result (GST-Syk(6-370)): no binding (tested: 5 nM) | binding result (GST-Zap-70(1-337) [7]): no binding (tested: 5 nM) | binding result [8]: no binding | binding result (Zap-70): no binding

The next lines start with the values.

binding result [3]: no binding
Binder: KLLITIHDRKEFAKFEEERARAKWDTANNPLYKEAT (other, UniProt P05106 742-777, looked up, not shown: small tags and cut ends, not fully specified, domain: cytoplasmic domain) [β3(752X) cytoplasmic tail model protein]

binding result (GST-Zap-70(1-337) [2]): binds
Binder: KLLMIIHDRREFAKFEKEKMNAKWDTGENPIYKSAVTTVVNPKYEGK (other, UniProt P05556 752-798, looked up, not shown: small tags and cut ends, not fully specified, domain: cytoplasmic domain) [β1A integrin cytoplasmic domain model protein]

binding result (GST-Zap-70(1-103)): binds | binding result (GST-Zap-70(163-254)): no binding | binding result [5]: no binding | binding result (GST-Syk(163-270)): no binding | Kd [1]: 24 nM | binding result (GST-Zap-70(1-337) [2]): binds | binding result (Zap-70(1-162)): binds | binding result (Zap-70(1-132)): binds | binding result [6]: no binding
B2: integrin β3 cytoplasmic tail model protein (other, UniProt P05106 742-788, looked up, not shown: a dimerising Fc or GST)
chain: B3 chain with A32Y
modifications: also: coiled-coil homodimer
notes: domain: cytoplasmic domain; Coiled-coil homodimer; also called β3 tail; β3 tail model protein
